The record followed here is patent CN109627331A.

Where “and” joins values, the source holds several entries; their conditions need not be identical. Equal entries are not always repeated.

Assay [1] has as its target 犬细小病毒 (canine parvovirus, whole virus) (犬细小病毒 (canine parvovirus)). The experiment in a line: cell-based or functional assay.
The target of assay [2] is 犬细小病毒VLPs (canine parvovirus virus-like particles) (犬细小病毒 (canine parvovirus)). Nature of the assay: indirect ELISA, VLPs coated at 1μg/ml, hybridoma supernatant. (In general: An ELISA detects its analyte on a solid surface through an enzyme-linked reagent.)
The target is the same in assay [3]. Nature of the assay: non-competitive indirect ELISA, CPV-VLPs coated at 1, 0.5, 0.25, 0.125 μg/ml; mean of 6 Ka values.

B1: 鼠源CPV基因工程抗体 (recombinant mouse anti-canine parvovirus antibody expressed in HEK-293 cells) (antibody, V domains shown)
VH: QVQLKQSGPGLVQPSQSLSITCTVSGFSLTSYGVHWVRHSPGKGLEWLGVIWSGGSTDYNAAFISRLSITKDNSKTQVFFKMNSLQANDTAIYYCARNSFYGSTPGSYAMDYWGQGTSVTVSS
VL: QIVLTQSPASLSMAIGEKVTIRCIASTDIDDDMNWYQQKPGKPPNLLISEGNTLRPGVPSRFSSSGYGTDFVFTIQNMLSEDVADYYCLQSDNLPLTFGAGTKLELK
As to B1, in assay [1], the 中和效价 was 4 titre (1:x) and 8 titre (1:x); the 血凝抑制效价 is 8 titre (1:x).

B2: CPV单克隆抗体 (mouse anti-canine parvovirus monoclonal antibody from hybridoma supernatant) (antibody, V domains shown)
VH: B1 VH
VL: B1 VL
Molecule B2 gave an OD450 in assay [2] of 1.07 OD450. In assay [3], this molecule registered a Ka of 1.02e+11 M⁻¹.
